Source: PMC8009664

Target: calmodulin (CaM), recombinant bovine 1-149 (UniProt P62157)
Experiment: ITC, peptide titrated into CaM
Conditions: reference: unphosphorylated H1H2; sites S648

NHE1 (Na+/H+ exchanger 1, hNHE1) H1H2, 622-692 (from UniProt P19634) Akt-phosphorylated H1H2 (pS648)
KD: weaker; reference Kd,1 0.27 ± 0.07; Kd,2 560 ± 10
